Legend:
Assay in all cases: holdup assay
Parameters in all cases: key: below the threshold = too weak to quantify, mostly under pKd 3.1 to 4
ARHGAP21, Q5T5U3 = target: T1, ARHGAP21, Q5T5U3
T1 sequence (Q5T5U3 45-169, limits assumed, looked up): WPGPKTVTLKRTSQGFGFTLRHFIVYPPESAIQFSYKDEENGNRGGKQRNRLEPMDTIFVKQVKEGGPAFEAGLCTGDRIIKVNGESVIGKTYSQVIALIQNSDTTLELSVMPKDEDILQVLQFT

ARHGEF11, O15085 = target: T2, ARHGEF11, O15085; details: plain residues with an end cap or a label only (N-terminal biotin on a linker: ttds)
T2 sequence (O15085 42-136, limits assumed, looked up): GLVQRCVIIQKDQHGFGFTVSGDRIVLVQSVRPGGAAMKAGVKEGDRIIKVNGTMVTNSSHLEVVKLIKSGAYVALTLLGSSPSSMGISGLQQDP

DLG3_2, Q92796 = target: T3, DLG3_2, Q92796
T3 sequence (Q92796 221-321, limits assumed, looked up): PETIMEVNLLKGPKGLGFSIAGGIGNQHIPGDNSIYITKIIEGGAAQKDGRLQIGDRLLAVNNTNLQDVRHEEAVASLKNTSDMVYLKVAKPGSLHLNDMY

DLG5_1, Q8TDM6 = target: DLG5_1, Q8TDM6
Chain of DLG5_1, Q8TDM6 (Q8TDM6 617-713): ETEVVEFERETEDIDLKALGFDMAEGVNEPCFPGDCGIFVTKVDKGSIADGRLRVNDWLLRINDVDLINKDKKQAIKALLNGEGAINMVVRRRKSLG

GORASP1, Q9BQQ3 = target: GORASP1, Q9BQQ3
Chain of GORASP1, Q9BQQ3 (Q9BQQ3 1-208): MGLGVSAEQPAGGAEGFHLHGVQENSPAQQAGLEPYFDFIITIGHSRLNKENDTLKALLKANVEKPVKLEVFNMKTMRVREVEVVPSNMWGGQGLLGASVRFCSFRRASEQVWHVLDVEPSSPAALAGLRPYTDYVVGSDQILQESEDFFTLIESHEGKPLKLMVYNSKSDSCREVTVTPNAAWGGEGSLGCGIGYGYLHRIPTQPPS

GRIP2_5, Q9C0E4 = target: GRIP2_5, Q9C0E4
Chain of GRIP2_5, Q9C0E4 (Q9C0E4 544-642): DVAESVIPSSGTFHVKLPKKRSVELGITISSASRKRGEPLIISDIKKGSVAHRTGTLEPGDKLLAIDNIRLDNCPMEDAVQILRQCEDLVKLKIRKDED

IL16_1, Q14005 = details: plain residues with an end cap or a label only (N-terminal biotin on a linker: ttds)
Chain of IL16_1, Q14005 (Q14005 210-306): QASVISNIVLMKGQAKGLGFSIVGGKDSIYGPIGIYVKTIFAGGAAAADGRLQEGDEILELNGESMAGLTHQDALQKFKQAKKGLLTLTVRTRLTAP

IL16_4, Q14005 = target: IL16_4, Q14005
Chain of IL16_4, Q14005 (Q14005 1229-1329): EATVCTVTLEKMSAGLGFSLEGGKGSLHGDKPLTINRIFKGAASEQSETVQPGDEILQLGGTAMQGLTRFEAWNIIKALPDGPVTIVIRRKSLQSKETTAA

Inadl_2, Q8NI35 = target: Inadl_2, Q8NI35
Chain of Inadl_2, Q8NI35 (Q8NI35 238-335): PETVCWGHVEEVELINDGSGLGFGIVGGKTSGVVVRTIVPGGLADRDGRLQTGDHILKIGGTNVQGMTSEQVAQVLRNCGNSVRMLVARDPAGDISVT

Inadl_8, Q8NI35 = target: Inadl_8, Q8NI35
Chain of Inadl_8, Q8NI35 (Q8NI35 1425-1530): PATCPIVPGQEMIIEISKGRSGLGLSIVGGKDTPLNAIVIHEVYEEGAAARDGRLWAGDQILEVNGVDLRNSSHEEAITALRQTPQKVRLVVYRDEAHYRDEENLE

LDB3, O75112 = target: LDB3, O75112
Chain of LDB3, O75112 (O75112 1-94): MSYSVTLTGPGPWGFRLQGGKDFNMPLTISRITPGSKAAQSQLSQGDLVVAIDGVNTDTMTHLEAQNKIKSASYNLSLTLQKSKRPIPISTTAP

LNX2_2, Q8N448 = target: T4, LNX2_2, Q8N448
T4 sequence (Q8N448 334-432, limits assumed, looked up): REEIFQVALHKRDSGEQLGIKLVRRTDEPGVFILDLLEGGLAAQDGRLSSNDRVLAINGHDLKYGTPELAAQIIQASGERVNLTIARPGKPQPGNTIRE

MAST1, Q9Y2H9 = details: plain residues with an end cap or a label only (N-terminal biotin on a linker: ttds)
Chain of MAST1, Q9Y2H9 (Q9Y2H9 962-1065): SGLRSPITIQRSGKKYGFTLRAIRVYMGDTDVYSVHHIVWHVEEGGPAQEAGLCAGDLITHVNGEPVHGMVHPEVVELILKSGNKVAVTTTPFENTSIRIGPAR

MAST2, Q6P0Q8 = target: MAST2, Q6P0Q8
Chain of MAST2, Q6P0Q8 (Q6P0Q8 1099-1202): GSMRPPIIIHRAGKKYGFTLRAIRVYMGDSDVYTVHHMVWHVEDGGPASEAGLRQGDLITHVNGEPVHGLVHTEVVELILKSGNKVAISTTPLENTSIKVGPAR

MPP6, Q9NZW5 = target: T5, MPP6, Q9NZW5
T5 sequence (Q9NZW5 125-219, limits assumed, looked up): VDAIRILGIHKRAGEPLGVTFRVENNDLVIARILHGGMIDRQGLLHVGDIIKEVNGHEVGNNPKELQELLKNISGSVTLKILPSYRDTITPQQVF

NHERF3_3, Q5T2W1 = target: T6, NHERF3_3, Q5T2W1
T6 sequence (Q5T2W1 238-333, limits assumed, looked up): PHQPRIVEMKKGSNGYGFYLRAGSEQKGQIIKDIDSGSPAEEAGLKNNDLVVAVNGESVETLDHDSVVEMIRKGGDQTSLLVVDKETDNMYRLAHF

NHERF4_4, Q86UT5 = target: NHERF4_4, Q86UT5
Chain of NHERF4_4, Q86UT5 (Q86UT5 464-550): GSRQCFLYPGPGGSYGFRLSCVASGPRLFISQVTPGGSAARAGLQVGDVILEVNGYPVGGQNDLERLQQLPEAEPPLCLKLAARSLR

PCLO, Q9Y6V0 = target: T7, PCLO, Q9Y6V0
T7 sequence (Q9Y6V0 4491-4600, limits assumed, looked up): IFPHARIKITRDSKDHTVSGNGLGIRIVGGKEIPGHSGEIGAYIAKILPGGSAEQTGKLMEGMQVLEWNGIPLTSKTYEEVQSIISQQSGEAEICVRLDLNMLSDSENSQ

PDZRN3_1, Q9UPQ7 = target: T8, PDZRN3_1, Q9UPQ7
T8 sequence (Q9UPQ7 244-349, limits assumed, looked up): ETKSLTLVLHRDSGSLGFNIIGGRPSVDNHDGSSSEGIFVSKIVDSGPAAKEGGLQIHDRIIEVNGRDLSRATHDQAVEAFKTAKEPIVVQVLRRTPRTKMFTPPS

PICK1, Q9NRD5 = target: PICK1, Q9NRD5
Chain of PICK1, Q9NRD5 (Q9NRD5 17-115): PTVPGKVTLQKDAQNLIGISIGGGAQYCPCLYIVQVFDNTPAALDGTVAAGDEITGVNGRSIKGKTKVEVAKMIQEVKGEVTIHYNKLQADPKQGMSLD

PTPN3, P26045 = target: PTPN3, P26045
Chain of PTPN3, P26045 (P26045 505-587): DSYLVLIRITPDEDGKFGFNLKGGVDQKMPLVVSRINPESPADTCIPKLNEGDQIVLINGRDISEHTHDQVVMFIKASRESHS

RHPN1, Q8TCX5 = target: T9, RHPN1, Q8TCX5
T9 sequence (Q8TCX5 508-602, limits assumed, looked up): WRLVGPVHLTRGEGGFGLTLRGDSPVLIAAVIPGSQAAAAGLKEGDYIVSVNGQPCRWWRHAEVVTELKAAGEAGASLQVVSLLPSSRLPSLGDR

SHANK1, Q9Y566 = target: T10, SHANK1, Q9Y566
T10 sequence (Q9Y566 658-767, limits assumed, looked up): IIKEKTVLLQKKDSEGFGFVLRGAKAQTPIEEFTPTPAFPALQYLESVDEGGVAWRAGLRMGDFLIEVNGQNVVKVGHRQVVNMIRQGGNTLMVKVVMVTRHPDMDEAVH

SIPA1L2, Q9P2F8 = target: T11, SIPA1L2, Q9P2F8
T11 sequence (Q9P2F8 945-1036, limits assumed, looked up): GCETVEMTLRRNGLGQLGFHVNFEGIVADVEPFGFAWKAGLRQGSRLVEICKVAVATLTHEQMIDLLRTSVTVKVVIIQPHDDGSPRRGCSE

SNX27, Q96L92 = target: SNX27, Q96L92
TJP1_2, Q07157 = target: TJP1_2, Q07157
Chain of TJP1_2, Q07157 (Q07157 181-274): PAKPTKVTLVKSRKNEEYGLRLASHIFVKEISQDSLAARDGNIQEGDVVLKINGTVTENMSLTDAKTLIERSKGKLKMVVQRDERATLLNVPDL

NHERF2_2, Q15599 = target: NHERF2_2, Q15599
Chain of NHERF2_2, Q15599 (Q15599 142-238): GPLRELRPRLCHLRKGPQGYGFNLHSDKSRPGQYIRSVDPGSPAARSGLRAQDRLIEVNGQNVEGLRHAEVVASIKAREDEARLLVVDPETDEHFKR

[1] = plain residues with an end cap or a label only (N-terminal biotin on a linker: ttds)
[2] = plain residues with an end cap or a label only (N-terminal biotin on a linker: ahx)

TEEEVQDTRL [CFTR, P13569]
pKd (ARHGAP21, Q5T5U3; [1]): below the threshold | pKd (ARHGEF11, O15085): below the threshold | pKd (DLG3_2, Q92796; [1]): below the threshold | pKd (DLG5_1, Q8TDM6; [1]): below the threshold | pKd (GORASP1, Q9BQQ3; [1]): below the threshold | pKd (GRIP2_5, Q9C0E4; [1]): below the threshold | pKd (IL16_1, Q14005): below the threshold | pKd (IL16_4, Q14005; [1]): below the threshold | pKd (Inadl_2, Q8NI35; [1]): below the threshold | pKd (Inadl_8, Q8NI35; [1]): below the threshold | pKd (LDB3, O75112; [1]): below the threshold | pKd (LNX2_2, Q8N448; [1]): below the threshold | pKd (MAST1, Q9Y2H9): 4.77 | pKd (MAST2, Q6P0Q8; [1]): 5.93 | pKd (MPP6, Q9NZW5; [1]): below the threshold | pKd (NHERF3_3, Q5T2W1; [1]): 3.79 | pKd (NHERF4_4, Q86UT5; [1]): below the threshold | pKd (PCLO, Q9Y6V0; [1]): below the threshold | pKd (PDZRN3_1, Q9UPQ7; [1]): 4.01 | pKd (PICK1, Q9NRD5; [1]): below the threshold | pKd (PTPN3, P26045; [1]): 4.21 | pKd (RHPN1, Q8TCX5; [1]): 4.12 | pKd (SHANK1, Q9Y566; [1]): 5.07 | pKd (SIPA1L2, Q9P2F8; [1]): below the threshold | pKd (SNX27, Q96L92; [1]): 5.56 | pKd (TJP1_2, Q07157; [1]): below the threshold

LCKSHAFSHV [PDLIM7, Q9NR12;Q9NR12-1]
pKd (ARHGAP21, Q5T5U3; [2]): below the threshold | pKd (DLG3_2, Q92796; [2]): below the threshold | pKd (DLG5_1, Q8TDM6; [2]): below the threshold | pKd (GORASP1, Q9BQQ3; [2]): below the threshold | pKd (GRIP2_5, Q9C0E4; [2]): below the threshold | pKd (IL16_4, Q14005; [2]): below the threshold | pKd (Inadl_2, Q8NI35; [2]): below the threshold | pKd (Inadl_8, Q8NI35; [2]): 4.1 | pKd (LDB3, O75112; [2]): below the threshold | pKd (LNX2_2, Q8N448; [2]): below the threshold | pKd (MAST2, Q6P0Q8; [2]): 4.21 | pKd (MPP6, Q9NZW5; [2]): below the threshold | pKd (NHERF2_2, Q15599; [2]): below the threshold | pKd (NHERF3_3, Q5T2W1; [2]): below the threshold | pKd (NHERF4_4, Q86UT5; [2]): below the threshold | pKd (PCLO, Q9Y6V0; [2]): below the threshold | pKd (PDZRN3_1, Q9UPQ7; [2]): below the threshold | pKd (PICK1, Q9NRD5; [2]): below the threshold | pKd (PTPN3, P26045; [2]): below the threshold | pKd (RHPN1, Q8TCX5; [2]): 4.38 | pKd (SHANK1, Q9Y566; [2]): below the threshold | pKd (SIPA1L2, Q9P2F8; [2]): below the threshold | pKd (SNX27, Q96L92; [2]): below the threshold | pKd (TJP1_2, Q07157; [2]): below the threshold

DEDQHTQITKV [PTEN, P60484]
pKd (ARHGAP21, Q5T5U3; [1]): below the threshold | pKd (ARHGEF11, O15085): 4.33 | pKd (DLG3_2, Q92796; [1]): 4.04 | pKd (DLG5_1, Q8TDM6; [1]): below the threshold | pKd (GORASP1, Q9BQQ3; [1]): 3.88 | pKd (GRIP2_5, Q9C0E4; [1]): below the threshold | pKd (IL16_4, Q14005; [1]): 3.5 | pKd (Inadl_2, Q8NI35; [1]): below the threshold | pKd (Inadl_8, Q8NI35; [1]): 4.46 | pKd (LDB3, O75112; [1]): below the threshold | pKd (LNX2_2, Q8N448; [1]): 4.25 | pKd (MAST1, Q9Y2H9): 4.79 | pKd (MAST2, Q6P0Q8; [1]): 5.24 | pKd (MPP6, Q9NZW5; [1]): below the threshold | pKd (NHERF2_2, Q15599; [1]): 4.29 | pKd (NHERF3_3, Q5T2W1; [1]): 3.67 | pKd (NHERF4_4, Q86UT5; [1]): below the threshold | pKd (PCLO, Q9Y6V0; [1]): below the threshold | pKd (PDZRN3_1, Q9UPQ7; [1]): 4.23 | pKd (PICK1, Q9NRD5; [1]): 3.77 | pKd (PTPN3, P26045; [1]): 3.94 | pKd (RHPN1, Q8TCX5; [1]): 4.36 | pKd (SHANK1, Q9Y566; [1]): 4.35 | pKd (SIPA1L2, Q9P2F8; [1]): below the threshold | pKd (SNX27, Q96L92; [1]): 4.89 | pKd (TJP1_2, Q07157; [1]): below the threshold
